The results in this text go back to patent US20150010546A1 (Ablynx, published 2015).

A value given as a limit tells only on which side of the number the result lay.

Assay [1] has as its target T1, human HGF (R&D Systems, 294-HG/CF) (human, UniProt P14210 32-728).
T1 construct: The entry begins at QRKRR, without signal peptide; Amine-coupled to the chip in SPR and biotinylated in AlphaScreen; also called rec hHGF (R&D systems)
Kind of assay: SPR (Biacore T100), HGF amine-coupled to CM5 chip, periplasmic extract at one dilution. As to the method: Off-rate constants (Koff) of individual Nanobodies were determined by surface plasmon resonance on a Biacore T100 instrument.
Human HGF (R&D) was amine-coupled to a CM5 sensor chip at a density of 2500 relative units. Remaining reactive groups were inactivated using ethanolamine. Nanobody binding was assessed at a single dilution of periplasmic extract, whereas c-Met was tested with a single concentration of 10 nM. Each sample was injected for 2 min at a flow rate of 45 μl/min to allow for binding to chip-bound antigen. Next, binding buffer without Nanobody was sent over the chip at the same flow rate to allow dissociation of bound Nanobody. After 10 min, remaining bound analyte was removed by injecting regeneration solution (1M NaCl, 50 mM NaOH).
On the technique in general: SPR reads the build-up and loss of mass on a sensor chip optically.

Assay [2] addresses T2, human HGF (R&D material and Peprotech material, values averaged over both) (human, UniProt P14210 32-728).
T2 construct: As printed they differ in one letter
Kind of assay: SPR (Biacore T100), purified Nanobody, average of R&D and Peprotech HGF. Here is the method: Affinity constants (Kd) of individual purified Nanobody clones were determined by surface plasmon resonance on a Biacore T100 instrument essentially as described above. The average was taken of an analysis performed on R&D material and Peprotech material.

The target of assay [3] is T1, human HGF (R&D Systems, 294-HG/CF). Kind of assay: AlphaScreen competition, biotinylated HGF and c-Met-Fc, dilution series of purified Nanobody. As to the method:
In brief, 5 μl of 1/5 prediluted periplasmic extract of individual Nanobody clones were incubated with 3 nM biotinylated HGF, 2 nM c-Met-Fc, streptavidin coated donor beads and anti-human IgG1 Fc Nanobody covalently coupled AlphaScreen acceptor beads. Monoclonal antibody clone 24612 (R&D systems) known to inhibit the HGF/c-Met-Fc interaction, was used as a positive control. Assays were read in an Envision AlphaScreen™ option fitted multimode reader (Perkin Elmer). Individual clones were scored as putative HGF/c-Met-Fc interaction inhibiting if the presence of the periplasmic extract decreased the fluorescent signal of the acceptor beads. Both inhibitory and non-inhibitory clones were identified. A 10-fold reduction in signal with respect to the negative control (irrelevant periplasmic extract and buffer) was used to select the HGF/c-Met inhibiting Nanobodies. As a positive control, anti-HGF monoclonal antibody (R&D systems, clone 24612) was included. FIG. 2 depicts an example of screen of periplasmic extracts using AlphaScreen.
Serial dilutions of purified Nanobodies were then analyzed for their ability to block the interaction of human HGF with c-Met-Fc using the same AlphaScreen™ assay as described above (1.4). […]
For orientation: In Alpha technology, singlet oxygen from a donor bead excites a nearby acceptor bead.

The target of assay [4] is T2, human HGF (R&D material and Peprotech …). Kind of assay: SPR (Biacore T100), summary table.
Assay [5] has the same target. Description: SPR (Biacore T100), purified Nanobody, biphasic dissociation, kd2 fitted 300-720 s after injection start.
The target is the same in assay [6]. Description: SPR (Biacore T100), purified Nanobody, biphasic dissociation, kd1 fitted 125-185 s after injection start.

T2 sequence (P14210 32-728 limits assumed): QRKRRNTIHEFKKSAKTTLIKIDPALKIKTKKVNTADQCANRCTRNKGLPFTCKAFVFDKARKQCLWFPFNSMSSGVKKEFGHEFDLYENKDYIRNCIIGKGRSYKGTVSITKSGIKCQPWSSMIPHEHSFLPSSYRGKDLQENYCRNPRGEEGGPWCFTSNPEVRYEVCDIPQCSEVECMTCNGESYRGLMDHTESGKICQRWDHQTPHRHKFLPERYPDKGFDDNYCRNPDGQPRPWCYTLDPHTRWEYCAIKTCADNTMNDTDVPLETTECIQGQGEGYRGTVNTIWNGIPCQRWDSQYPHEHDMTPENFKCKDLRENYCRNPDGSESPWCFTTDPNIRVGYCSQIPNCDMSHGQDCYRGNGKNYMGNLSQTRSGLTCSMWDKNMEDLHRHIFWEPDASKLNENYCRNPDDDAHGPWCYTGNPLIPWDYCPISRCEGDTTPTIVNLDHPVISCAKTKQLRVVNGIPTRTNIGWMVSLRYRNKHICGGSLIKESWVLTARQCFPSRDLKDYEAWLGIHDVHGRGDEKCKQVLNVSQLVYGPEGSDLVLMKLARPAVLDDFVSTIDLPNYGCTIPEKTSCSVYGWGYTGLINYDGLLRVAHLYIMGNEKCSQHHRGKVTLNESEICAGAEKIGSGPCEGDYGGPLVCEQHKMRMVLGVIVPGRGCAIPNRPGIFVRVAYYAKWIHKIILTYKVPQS
T1 sequence (P14210 32-728 limits assumed): as above

B1: 5G9 (VHH)
VHH: EVQLVESGGGLVQTGGSLRLSCAASGRTFSPYAAGWFRHAPGKEREFVTAITWSGGSTYYADSVKGRFTISRDNAKNTVYLQMNSLKPEDTAVYYCAASYRWGITHEFDYWGQGTQVTVSS
notes: anti-HGF Nanobody clone, tested as periplasmic extract; not shown: c-myc and His6 tags
For orientation: koff means a measure of how fast the partners let go of each other. Lower therefore signals a long-lived complex. In assay [1], B1 displayed a koff of 0.0008 s⁻¹.

B2: 6E10 (VHH)
VHH: EVQLVESGGGLVQAGGSLRLSCAASGRTDSSYAMGWFRQAPGKEHEFVAAISWSGGSTYYADSVKGRFTISRDNAKNTLYLQMNSLKPEDTAVYYCGASYRWGITHEYEYWGQGTQVTVSS
notes: anti-HGF Nanobody clone; not shown: c-myc and His6 tags
The term Kd denotes the concentration at which binding is half-saturated. A high value points to lower affinity. The term kon denotes the rate constant with which the complex forms. A word on the IC50: it is the concentration at which inhibition is half-maximal. Low readings indicate inhibition by little substance, high ones a need for much substance. In assay [2], B2 yielded a Kd of 1.14 nM, a koff of 5.5e-05 s⁻¹ and a kon of 49900 M⁻¹ s⁻¹. The molecule also showed an IC50 in assay [3] of 3 nM. Further, in assay [1], the koff was 0.000324 s⁻¹. Further, in assay [4], the Kd worked out at 1.14 nM and the koff came out at 5e-05 s⁻¹.

B3: 1E9 (VHH)
VHH: EVQLVESGGGLVQPGGSLRLSCAASGFTLDHYTIGWFRQAPGNEREGVSCISSLDGSTYYADSVKGRFTISRDNAKDTVYLQMNSLKPEDTAVYYCAVAGCGAYGLIPYDYWGQGTQVTVSS
notes: as for B2
In assay [2], B3 yielded a Kd of 7.16 nM, a koff of 0.00052 s⁻¹ and a kon of 92000 M⁻¹ s⁻¹. Moreover, the IC50 in assay [3] was 4.5 nM. In addition, the koff in assay [1] was 0.00314 s⁻¹. In assay [4], this molecule yielded a Kd of 7.16 nM and a koff of 0.0005 s⁻¹.

B4: 6G6 (VHH)
VHH: EVQLVESGGGLAQAGGSLRLSCAASGRSLSNYAMGWFRQAPGKEREIVCAISRSGSITTYADSVKGRFTIAKDNAANTVYLQMNSLKPEDTAAYYCAADPMYYGIPDQNWDYWGQGTQVTVSS
notes: as for B2
In assay [2], B4 displayed a Kd of 7.37 nM, a koff of 0.00573 s⁻¹ and a kon of 753000 M⁻¹ s⁻¹. The molecule further gave an IC50 in assay [3] of 2.8 nM. The molecule also came in with a koff in assay [1] of 0.00178 s⁻¹. In assay [4], this molecule yielded a Kd of 7.37 nM and a koff of 0.006 s⁻¹.

B5: 5B7 (VHH)
VHH: EVQLVESGGGLAQAGGSLRLSCAASGRSLSNYAMGWFRQAPGKEREIVCAISRSGSITTYADSVKGRFTIAKDNAANTVYLQMNSLKPEDTAAYYCAADPMYYGIPDQNWDYWGQGTQVTVSS
notes: as for B1
Molecule B5 showed a koff in assay [1] of 0.00175 s⁻¹.

B6: 6E6 (VHH)
VHH: EVQLVESGGGLAQAGGSLRLSCAASGRSLSNYAMGWFRQAPGKEREIVCAISRSGSITTYADSVKGRFTIAKDNAANTVYLQMNSLKPEDTAAYYCAADPMYYGIPDQNWDYWGQGTQVTVSS
notes: as for B1
In assay [1], B6 registered a koff of 0.0017 s⁻¹.

B7: 5E8 (VHH)
VHH: EVQLVESGGGLAQAGGSLRLSCAASGRSLSNYAMGWFRQAPGKEREIVCAISRSGSITTYADSVKGRFTIAKDNAANTVYLQMNSLKPEDTAAYYCAADPMYYGIPDQNWDYWGQGTQVTVSS
notes: as for B1
As to B7, in assay [1], the koff turned out to be 0.00163 s⁻¹.

B8: 6E11 (VHH)
VHH: EVQLVESGGGLAQAGGSLRLSCAASGRSLSNYAMGWFRQAPGKEREIVCAISRSGSITTYADSVKGRFTIAKDNAANTVYLQMNSLKPEDTAAYYCAADPMYYGIPDQNWDYWGQGTQVTVSS
notes: as for B1
In assay [1], B8 came in with a koff of 0.00168 s⁻¹.

B9: 6A6 (VHH)
VHH: EVQLVESGGGLAQAGGSLRLSCAASGRSLSNYAMGWFRQAPGKEREIVCAISRSGSITTYADSVKGRFTIAKDNAANTVYLQMNSLKPEDTAAYYCAADPMYYGIPDQNWDYWGQGTQVTVSS
notes: as for B1
As to B9, in assay [1], the koff is 0.00164 s⁻¹.

B10: 5D10 (VHH)
VHH: EVQLVESGGGLAQAGGSLRLSCAASGRSLSNYAMGWFRQAPGKEREIVCAISRSGSITTYADSVKGRFTIAKDNAANTVYLQMNSLKPEDTAAYYCAADPMYYGIPDQNWDYWGQGTQVTVSS
notes: as for B1
Take B10: in assay [1], the koff was found to be 0.00199 s⁻¹.

B11: 9E6 (VHH)
VHH: EVQLVESGGGLAQAGGSLRLSCAASGRSLSNYAMGWFRQAPGKEREIVCAISRSGSITTYADSVKGRFTIAKDNAANTVYLQMNSLKPEDTAAYYCAADPMYYGIPDQNWDYWGQGTQVTVSS
notes: as for B1
On to B11, for which, in assay [1], the koff is 0.00218 s⁻¹.

B12: 6F6 (VHH)
VHH: EVQLVESGGGLVQPGGSLRLSCAASGSILGINAMGWYRQAPGKQRELVAVINSGGSTNYADSVKGRFTISRDNAKNTVYLQMNSLKPEDTAVYYCNADEWGDYPGQVYDYWGQGTQVTVSS
notes: as for B2
As for B12, the koff in assay [5] is 0.00213 s⁻¹; in assay [1], 0.00545 s⁻¹; in assay [6], 0.00577 s⁻¹.

B13: 6B6 (VHH)
VHH: EVQLVESGGGLVQPGGSLRLSCAASGFTFDDYAMSWGRQAPGKGLEWVSAISWNGGSTYYAESMKGRFTVSRDNAKNTLYLQMNSLKSEDTAVYYCAKALDPLGVLAGTSGIYDYWGQGTQVTVSS
notes: as for B1
With B13, the koff in assay [1] was determined as 9.37e-06 s⁻¹.

B14: 1F3 (VHH)
VHH 1: EVQLVESGGGLVQSGGSLKLSCAASGFTFSNYFMSWVRQTPEKRLEWVAYISSGGGSTYYPDSVKGRFTISRDNAKNTLYLQMSSLKSEDTAMYYCVRQGDGYYGDYAMDYWGQGTSVTVSS
VHH 2: DIQMTQSPASLSVSVGETVTITCRASENIYSNLAWYQQKQGKSPQLLVYDATHLPDGVPSRFSGSGSGTQFSLKINSLQSEDFGSYYCQHFWGTPYTFGGGTRLEIKR
Regarding B14, the koff in assay [1] is 0.00345 s⁻¹.

B15: 1E2 (VHH)
VHH: EVQLVESGGGLVQPGGSLRLSCAASGRTFSSYAMGWFRQAPGKEREFVAGISWSGSSSYYADSVKGRFTISRDNAKNTVYLQMNSLKPEDTAVYYCAADPVGRADLYEYDYWGQGTQVTVSS
notes: as for B2
Regarding B15, in assay [2], binding was characterised by a dissociation constant (Kd) of 1.36 nM, the koff was 0.0001 s⁻¹ and the kon amounted to 75200 M⁻¹ s⁻¹. In addition, the IC50 in assay [3] is 1.8 nM. The off-rate (koff) in assay [1] worked out at 0.00312 s⁻¹. In assay [4], this molecule had a Kd of 1.36 nM and a koff of 0.0001 s⁻¹.

B16: 1C7 (VHH)
VHH: EVQLVESGGGLVQAGGSLRLSCAASGRTFSSYAMGWFRQAPGKEREFVAGISWSGGSTYYADSVKGRFTISRDNAKNTVYLRMNSLKPEDTAVYYCAADPVGRADLYEYDYWGQGTQVTVSS
notes: as for B1
In turn, B16 yielded a koff in assay [1] of 0.00286 s⁻¹.

B17: 10G3 (VHH)
VHH: EVQLVESGGGLVQAGGSLRLSCADSGRTFSSYAMGWFRQAPGKEREFVAGVNWSGDSTYYADSVKGRFTISRDNAKNTVYLQMNSLKPEDAAVYYCAADPVGRADLYEYDYWGQGTQVTVSS
notes: as for B1
As for B17, the koff in assay [1] turned out to be 0.000377 s⁻¹.

B18: 6B2 (VHH)
VHH: EVQLVESGGGLVQAGGSLRLSCAASGRTFSSYAMGWFRQAPGKEREFVAAINWSGDSTYYADSVKGRFTISRDNAKNTVYLQMNSLKPEDTAVYYCAAGDVGRPDLYEYDYWGQGTQVTVSS
notes: as for B2
In assay [2], B18 displayed a Kd of 0.08 nM, a koff of 2.15e-06 s⁻¹ and a kon of 27800 M⁻¹ s⁻¹. In assay [3], this molecule displayed an IC50 of 2.8 nM. Besides, in assay [1], the koff was found to be 0.000774 s⁻¹. Also, in assay [4], the Kd was ≤ 0.08 nM and the koff was ≤ 1e-05 s⁻¹.

B19: 6H6 (VHH)
VHH: EVQLMESGGGLVQAGGSLRLSCAASGRTFSSYAMGWFRQAPGKERENVAAISSSGGYTYYPDSVKGRFTISRDTAKNTVYLQMNSLKPDDTAVYYCAGTQPNFGWQLLLLQTEYDYWGQGTQVTVSS
notes: as for B2
Turning to B19, the dissociation rate constant (koff) in assay [5] was 0.00332 s⁻¹; in assay [1], 0.0139 s⁻¹; in assay [6] it was 0.00313 s⁻¹; in assay [4] it was 0.003 s⁻¹. The molecule also yielded an IC50 in assay [3] of 26.7 nM.

B20: 9G6 (VHH)
VHH: EVQLVESGGGLVQAGGSLRLSCAASGRTLSDYTMGWFRQAPGKEREFVARINTGGPITSYSDSVKGRFTISRDNAKNTVYLQMNSLKPEDTAVYNCAARLPTKMSPRDYSSYAYRGQGTQVTVSS
notes: as for B2
Take B20: the koff amounted to 0.00102 s⁻¹ in assay [5], 0.00107 s⁻¹ in assay [1], 0.00237 s⁻¹ in assay [6] and 0.001 s⁻¹ in assay [4]. In assay [3], the IC50 came to 6.6 nM.
